This experiment concerns the target human CCR8 (human) (UniProt P51685). In words: cell-based or functional assay.
UniProt P51685, sequence (P51685 whole entry): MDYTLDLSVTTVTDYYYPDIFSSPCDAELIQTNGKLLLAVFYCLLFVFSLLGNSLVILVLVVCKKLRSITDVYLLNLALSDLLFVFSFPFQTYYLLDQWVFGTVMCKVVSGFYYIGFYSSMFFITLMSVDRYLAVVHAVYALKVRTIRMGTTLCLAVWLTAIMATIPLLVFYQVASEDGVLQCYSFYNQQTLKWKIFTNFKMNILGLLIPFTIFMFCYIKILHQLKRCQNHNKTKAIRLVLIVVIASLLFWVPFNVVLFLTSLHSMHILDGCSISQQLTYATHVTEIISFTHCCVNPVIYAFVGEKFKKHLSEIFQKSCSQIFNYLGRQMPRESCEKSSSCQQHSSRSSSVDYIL

On to “anti-human CCR8 antibody (clone name: L263G8, BioLegend, Inc.)”, for which the inhibition of the cytotoxic activity of aCCR8-2-CAR-12-expressing KHYG-1 cells against ATN-1 cells (calcein), antibody at 33 nM added 10 minutes before the effector cells was more than 50%.

Values taken from patent publication US20240190975A1.
